Changes are numbered by the printed parent chain.
T1: CTLA4-Fc (UniProt P16410 36-161, limits assumed)
T1 sequence (looked up): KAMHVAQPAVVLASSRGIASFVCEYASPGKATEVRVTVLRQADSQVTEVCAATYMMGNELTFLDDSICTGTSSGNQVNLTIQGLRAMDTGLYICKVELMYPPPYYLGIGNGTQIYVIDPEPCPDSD

T2: cyno Macaque CTLA-4 (cyno Macaque, UniProt G7PL88 36-161)
T2 construct: ELISA antigen; construct not described; also called CynoCTLA-4; cyno CTLA-4
T2 sequence: T1 sequence (looked up) with S14N, I18T, L106M

T3: human CTLA-4 (human, UniProt P16410 36-161, limits assumed)
T3 construct: also called HuCTLA-4; human cytotoxic T lymphocyte antigen-4
T3 sequence: T1 sequence (looked up)

T4: CTLA4-his (UniProt P16410 36-161, limits assumed)
T4 construct: construct not described; also called Ag CTLA4-his; Antigen CTLA4-his; not shown: his tag
T4 sequence (looked up): T1 sequence (looked up)

B1: MAb A2 (7G10D3) (antibody, V domains shown)
VH: QIQLVQSGPELKKPGETVKISCKASGYTFTTYGMSWVKQTPGKGLKWMGWINTYSGVPTYADDFKGRFAFSLETSASTAYLQINNLKNEDTATYFCARGRDYYGSSYRLFGVWGTGTTVTVSS
VL: DIQMTQTTSSLSASLGDRVTISCRASQDISNYLNWYQQKPDGTVKLLIYYTSILNSGVPSKFSGSGSGTDYSLTISNLEQEDIATYFCQQGNTLPWTFGGGTKLEIK
notes: also called murine antibody A2
B2: MAb A3 (32G12D2) (antibody, V domains shown)
VH: QVQLQQPGAELVRPGSSVKLSCKASGYTFTSYWMHWVKQRPIQGLEWIGNIDPSDSETHYNQNFKDKATLTVDKSSSTAYLQLSSLTSEDSAVYYCARRYTSSSFDYWGQGTTLTVSS
VL: B1 VL with I21V, S30R, Y50F, I53K, N55H, K61R, S72F, T74A, W96Y
notes: also called murine antibody A3
B3: MAb A5 (32G4C12) (antibody, V domains shown)
VH: QVQLQQSGPELVRPGASVKLSCKASGYTFTTYDINWVKQRPGQGLEWIGWIYPRDGSIIFNEKFKGKATLTVDTTSSTAYMELHSLTSEDSAVYFCARRGLLGPLDYWGQGTPLTVSS
VL: DIVMTQSHKFMSTSVGDRVSITCKASQDVATTVAWYQQKPGQSPKLVIYWASTRHTGVPDRFTGSGSGTDFTLTISNVQSEDLADYFCQQYSSYPTFGVGTKLELK
notes: also called murine antibody A5
B4: Humanized Ab 14 (VH6 + VL3) (antibody, human IgG1, kappa, V domains shown)
VH: QVQLVQSGAEVKKPGASVKVSCKASGYKFTDHFINWVKQAPGQGLEWIGDINPNNGGTNSNQKFEGKATLTVDKSISTAYMELRRLRSDDTAVYYCARLRREYFYAMDYWGQGTLVTVSS
VL: DIVMTQSPLSLPVTPGEPASISCRSSKSLLHSNGITYLYWYLQKPGQSPQLLIYQMSNLASGVPDRFSSSGSGTDFTLKISRVEAEDVGVYYCAQNLELPLTFGGGTKLEIKR
notes: Humanized IgG1 derived from MAb A4
B5: Humanized Ab 11 (VH4 + VL2) (antibody, human IgG1, kappa)
heavy: not shown
light: DIVMTQSPLSLPVTPGEPASISCRSSKSLLHSNGITYLYWYLQKPGQSPQLLIYQMSNLASGVPDRFSSSGSGTDFTLKISRVEAEDVGVYYCAQNLELPLTFGGGTKVEIKRTVAAPSVFIFPPSDEQLKSGTASVVCLLNNFYPREAKVQWKVDNALQSGNSQESVTEQDSKDSTYSLSSTLTLSKADYEKHKVYACEVTHQGLSSPVTKSFNRGEC
notes: as for B4
B6: Humanized Ab 8 (VH3 + VL2) (antibody, human IgG1, kappa, V domains shown)
VH: B4 VH with K67R, A68V, K74T, R84S
VL: B4 VL with L109V
notes: Humanized IgG1 derived from MAb A4, full length, HEK293
B7: Humanized Ab 4 (VH2 + VL1) (antibody, human IgG1, kappa, V domains shown)
VH: B4 VH with K38R, K67R, A68V, L70M, K74T, R84S
VL: B4 VL with S69G, L109V
notes: as for B6
B8: Humanized Ab 7 (VH3 + VL1) (antibody, human IgG1, kappa, V domains shown)
VH: B4 VH with K67R, A68V, K74T, R84S
VL: B4 VL with S69G, L109V
notes: as for B6
B9: Humanized Ab 1 (VH1 + VL1) (antibody, human IgG1, kappa, V domains shown)
VH: B4 VH with K38R, I48M, K67R, A68V, L70M, V72R, K74T, R84S
VL: B4 VL with S69G, L109V
notes: as for B6
B10: Humanized Ab 13 (VH5 + VL3) (antibody, human IgG1, kappa, V domains shown)
VH: B4 VH with K12V, V20I, A40N, K67R, K74T, R84S
VL: B4 VL
notes: as for B6
B11: Humanized Ab 12 (VH4 + VL3) (antibody, human IgG1, kappa)
heavy: not shown
light: B5 light with V109L
notes: as for B6
B12: Humanized Ab 2 (VH1 + VL2) (antibody, human IgG1, kappa)
heavy: not shown
light: B5 light
notes: as for B6
B13: Humanized Ab 3 (VH1 + VL3) (antibody, human IgG1, kappa)
heavy: not shown
light: B5 light with V109L
notes: as for B6
B14: Humanized Ab 6 (VH2 + VL3) (antibody, human IgG1, kappa)
heavy: not shown
light: B5 light with V109L
notes: as for B6
B15: Humanized Ab 10 (VH4 + VL1) (antibody, human IgG1, kappa, V domains shown)
VH: B4 VH with V20I, K67R, K74T, R84S
VL: B4 VL with S69G, L109V
notes: as for B6
B16: Humanized Ab 5 (VH2 + VL2) (antibody, human IgG1, kappa)
heavy: not shown
light: B5 light
notes: as for B6

What follows are binders tested against T1, CTLA4-Fc (assay: cell-based or functional assay).

Binder | IC50 (nM), IL-2 secreted by Jurkat cells co-cultured with CHO/CD80 cells, Experiment 1 [nM] | IC50 (nM), IL-2 secreted by Jurkat cells co-cultured with CHO/CD80 cells, Experiment 2 [nM]
B1 | 26.4 | 22.3
B2 | 22.7 | 14.9
B3 | 27.3 | 16.6

Target: T1, CTLA4-Fc
Test: cell-based or functional assay
Remark: another data set of the same source

Binder | IC50 (nM), Jurkat cell activation assay of Example 2 (IL-2) [nM]
B4 | 3.1
B5 | 8.7

The binders below were run against T2, cyno Macaque CTLA-4 (assay: ELISA, cyno CTLA-4 binding).

Binder | EC50 [nM]
B1 | 0.01
B2 | 0.054
B3 | 0.045

The binders below were run against T3, human CTLA-4 (assay: ELISA, human CTLA-4 binding).

Binder | EC50 [nM]
B1 | 0.077
B2 | 0.026
B3 | 0.049

These binders were tested against T5, murine CTLA-4 (murine, UniProt P09793 36-161, limits assumed) (assay: ELISA, murine CTLA-4 binding assay).
T5 construct: ELISA antigen; construct not described; also called mouse CTLA-4

Binder | binding result
B1 | no binding
B2 | no binding
B3 | no binding

What follows are binders tested against T3, human CTLA-4 (assay: ligand blocking assay with purified proteins; competitor CD80).

Binder | IC50 [nM]
B1 | 12.8
B2 | 0.822
B3 | 0.641

Each binder was assayed against T3, human CTLA-4 (assay: ligand blocking assay with purified proteins; competitor CD86).

Binder | IC50 [nM]
B1 | 1.61
B2 | 0.369
B3 | 0.271

What follows are binders tested against T4, CTLA4-his (assay: SPR Biacore 8k, purified antibody captured on chip, CTLA4-his as analyte).
Description: The affinities of purified antibody binding to CTLA4-his was determined using a Surface Plasmon Resonance (SPR) biosensor, Biacore 8k. Antibodies were immobilized on the sensor chip through capture method. Antigen CTLA4-his was used as the analyte. The data of dissociation (kd) and association (ka) rate constants were obtained using Biacore 8k evaluation software. The equilibrium dissociation constants (KD) were calculated from the ratio of kd over ka.

Binder | Kd [nM] | koff [s⁻¹] | kon [M⁻¹ s⁻¹]
B4 | 0.0248 | 1.99e-05 | 802000
B5 | 0.339 | 0.000307 | 904000

Each binder was assayed against T3, human CTLA-4 (assay: ratio of the IC50 for blocking CD80 to the IC50 for blocking CD86 on CTLA-4).

Binder | CD80/CD86 Blocking Ratio
B1 | 7.91
B2 | 2.23
B3 | 2.37

Each binder was assayed against T4, CTLA4-his (assay: SPR Biacore T200, antibody from supernatant captured by anti-human Fc, CTLA4-his injected).
Description: Affinity ranking of the fifteen humanized antibodies was determined using a Surface Plasmon Resonance (SPR) biosensor, Biacore T200 (GE Healthcare). Anti-human Fc gamma specific antibody was immobilized onto the sensor chip using amine coupling method. […] After equilibration, Ag CTLA4-his was injected for 300 seconds (association phase) followed by the injection of running buffer for 600s (dissociation phase). Responses of reference flow cell (flow cell 1) were subtracted from those of humanized antibodies flow cells during each cycle. The surface was regenerated before the injection of other humanized antibodies. The process was repeated until all antibodies are analyzed. The off-rates of humanized antibodies were obtained from fitting the experimental data locally to 1:1 interaction model using the Biacore 8K evaluation software. The antibodies were ranked by their dissociation rate constants (off-rates, kd).

Binder | Kd [nM] | koff [s⁻¹] | kon [M⁻¹ s⁻¹]
B6 | 0.791 | 0.000523 | 661000
B7 | 0.83 | 0.000611 | 736000
B8 | 0.956 | 0.000434 | 454000
B9 | 1.2 | 0.000338 | 281000
B10 | 0.542 | 0.00016 | 295000
B11 | 0.435 | 0.000397 | 913000
B4 | ≤ 0.0452 | ≤ 1e-05 | 221000
B12 | 1 | 0.000351 | 350000
B13 | 1.17 | 0.000437 | 375000
B14 | 1.16 | 0.000347 | 300000
B5 | 0.684 | 0.000305 | 446000
B15 | 0.852 | 0.000288 | 338000
B16 | 1.12 | 0.000345 | 309000

Source: patent US20200055937A1 (REMD BIOTHERAPEUTICS, published 2020)
